Our source for the Kd values is paper PMC6748948, “A Bone Morphogenetic Protein (BMP)-derived Peptide Based on the Type I Receptor-binding Site Modifies Cell-type Dependent BMP Signalling” (Scientific Reports, 2019).

A word on the Kd: it is the free concentration of one partner at which half of the binding sites on the other are occupied at equilibrium, for simple one-to-one binding. Low readings indicate a tighter complex, high ones a looser complex.

The assay addresses Peptide P3* (BMP9-based peptide from the ALK1-binding site, biotinylated at the N-terminus) (UniProt Q9UK05). Nature of the assay: SPR; Biacore T200; biotinylated P3* immobilised on streptavidin (SA) chip; ALK1-Fc flowed over, injection 4 min, otherwise as for the CM5 assays; steady-state fit.

Peptide P3* (BMP9-based peptide from the ALK1-binding site, biotinylated at the N-terminus), sequence (Q9UK05 320-429): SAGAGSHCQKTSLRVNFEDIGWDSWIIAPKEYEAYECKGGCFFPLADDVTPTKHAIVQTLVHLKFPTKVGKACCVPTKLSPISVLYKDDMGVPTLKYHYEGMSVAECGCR
ALK1-Fc (activin receptor like kinase 1, Fc fusion), sequence (P37023 22-118): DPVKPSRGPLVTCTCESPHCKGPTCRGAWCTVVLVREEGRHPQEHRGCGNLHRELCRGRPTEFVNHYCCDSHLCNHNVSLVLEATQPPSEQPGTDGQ

In the case of “ALK1-Fc (activin receptor like kinase 1, Fc fusion) (from UniProt P37023 22-118)”, the Kd was determined as 30 mM.
